Data as given in article doi:10.1101/2020.12.08.416511 (bioRxiv, 2020).

Target: human β-cardiac myosin subfragment 1 heavy chain (amino acids 1-841) (human, UniProt P12883 1-841)
Experiment: pull-down

Sequence of human β-cardiac myosin subfragment 1 heavy chain (amino acids 1-841) (P12883 1-841): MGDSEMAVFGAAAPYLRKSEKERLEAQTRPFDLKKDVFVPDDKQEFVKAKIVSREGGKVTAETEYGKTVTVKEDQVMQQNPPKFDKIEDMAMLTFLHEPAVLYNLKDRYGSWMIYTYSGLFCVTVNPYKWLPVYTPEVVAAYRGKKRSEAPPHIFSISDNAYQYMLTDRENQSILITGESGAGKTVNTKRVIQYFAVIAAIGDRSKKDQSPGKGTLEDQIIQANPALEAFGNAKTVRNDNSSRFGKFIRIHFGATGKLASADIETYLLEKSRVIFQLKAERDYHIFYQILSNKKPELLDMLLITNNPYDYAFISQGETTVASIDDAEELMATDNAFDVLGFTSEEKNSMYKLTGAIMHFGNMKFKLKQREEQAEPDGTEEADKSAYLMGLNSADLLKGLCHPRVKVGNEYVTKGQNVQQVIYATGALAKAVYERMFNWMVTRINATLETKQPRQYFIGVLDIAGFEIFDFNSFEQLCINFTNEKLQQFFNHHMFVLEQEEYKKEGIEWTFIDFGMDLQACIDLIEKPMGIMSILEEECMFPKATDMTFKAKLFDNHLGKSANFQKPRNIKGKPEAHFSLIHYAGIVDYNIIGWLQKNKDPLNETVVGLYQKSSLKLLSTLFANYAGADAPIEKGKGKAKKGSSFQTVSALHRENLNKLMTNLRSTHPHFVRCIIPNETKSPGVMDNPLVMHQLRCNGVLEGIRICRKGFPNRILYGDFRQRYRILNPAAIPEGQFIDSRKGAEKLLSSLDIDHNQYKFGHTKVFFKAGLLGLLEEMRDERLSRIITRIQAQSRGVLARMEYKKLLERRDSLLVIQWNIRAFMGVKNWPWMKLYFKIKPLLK

stoichiometry N: 1 A488RLC per M2β-S1
B1: Alexa 488-labeled human ventricular cardiac regulatory light chain (V105C) (natural protein)
chain: MAPKKAKKRAGGANSNVFSMFEQTQIQEFKEAFTIMDQNRDGFIDKNDLRDTFAALGRVNVKNEEIDEMIKEAPGPINFTVFLTMFGEKLKGADPEETILNAFKCFDPEGKGVLKADYVREMLTTQAERFSKEEVDQMFAAFPPDVTGNLDYKNLVHIITHGEEKD
modifications: Alexa Fluor 488 C5 maleimide on the single reactive cysteine at position 105
